T1: ZPT2-14ZF (UniProt O22086 41-117)
T1 sequence: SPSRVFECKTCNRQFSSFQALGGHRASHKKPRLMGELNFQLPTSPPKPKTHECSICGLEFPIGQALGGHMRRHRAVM

B1: AGT-5-AGT (dsDNA)
DNA 1: CTCGAGAAATTTCCCGGAATTCCAGTGATCCAGTGGCCGGAATTTCCCGGGGGGATCC
DNA 2: GGATCCCCCCGGGAAATTCCGGCCACTGGATCACTGGAATTCCGGGAAATTTCTCGAG
B2: AGT-5-ACT (dsDNA)
DNA 1: CTCGAGAAATTTCCCGGAATTCCAGTGATCCACTGGCCGGAATTTCCCGGGGGGATCC
DNA 2: GGATCCCCCCGGGAAATTCCGGCCAGTGGATCACTGGAATTCCGGGAAATTTCTCGAG
B3: AGT-10-ACT (dsDNA)
DNA 1: CTCGAGAAATTTCCCGGAATTCCAGTGGGAAATTTCACTGGCCGGAATTTCCCGGGGGGATCC
DNA 2: GGATCCCCCCGGGAAATTCCGGCCAGTGAAATTTCCCACTGGAATTCCGGGAAATTTCTCGAG
B4: ACT-10-AGT (dsDNA)
DNA 1: CTCGAGAAATTTCCCGGAATTCCACTGGGAAATTTCAGTGGCCGGAATTTCCCGGGGGGATCC
DNA 2: GGATCCCCCCGGGAAATTCCGGCCACTGAAATTTCCCAGTGGAATTCCGGGAAATTTCTCGAG

Target: T1, ZPT2-14ZF
Experiment: EMSA; 25 mM HEPES-KOH pH 7.6, 40 mM KCl, 0.1% NP-40, 10 uM ZnCl2, 1 mg/mL BSA, 10% glycerol, 10 ug/mL poly(dI-dC), 1 mM DTT, 0.15 nM probe, 25 min at 20 C
Conditions: protein: recombinant; tags: MBP fusion cleaved with TEV protease; untagged; label: 32P end

| Binder | Kd |
| --- | --- |
| B1 | 9.1 ± 1.2 nM |
| B2 | 21.7 ± 3.4 nM |
| B3 | 10.4 ± 1.6 nM |
| B4 | 11.6 ± 1.9 nM |
